Substrate: NC(CCCC(N)C(=O)O)C(=O)O
Test: purified protein
Assay type: biochemical, Crocosphaera subtropica
Settings: 0.1 mM PLP, 20 mM Tris-HCl pH 8.0, methods say room temperature, abstract says 30°C, DAP 0.5-15 mM

B1: CsDAPDC (Crocosphaera subtropica ATCC 51142) (protein)
chain: MIATPTKTPHTGQDYLKIKINATDSTKRSPNQSLLPLTANINAHDHLEIGGCDLQTLVEQFGSPLYILDEMTLRTACRQYRDNFQTYYKGESQVIYASKAWSCLAVVGVIARENLGFDVVSGGELYTTQKALTQLGYSCQEIAKKIYFHGNNKSEAELKEAIKVGCTIIVDNWLELQTLAQLGNDTPNLTIPILIRLTPGIECHTHEYIRTGHLDSKFGFDPNQLEAVFTYISQQTSLDCRGLHAHIGSQIFERQPHQDLAGVLVEWLKIGREYGLNLSELNIGGGLGICYTEEDDPPSIEEWVKAVSEAVMKACQRCEIDLPKLIAEPGRSLIGSACVTAYTVGSRKEIPELRTYIAVDGGMSDNPRPITYQSLYRVALANRMSAEISETVTIAGKHCESGDIVIKDAQLPQTHPGDILVIMGTGAYNYSMASNYNRLPRPAAVMVNQGEANLIVRRETYDDLIRQDCLPQRLLP
notes: tag removal not mentioned; dimer only from homology model
Question: With B1 as the protein, how does the Km read?
Answer: 1200 ± 170 µM

Question: What about the kcat of the same protein?
Answer: 1.68 s⁻¹

Source: PMC12599289, “Kinetic and homology model analysis of diaminopimelate decarboxylase from Cyanothece sp. ATCC 51142: unveiling a key enzyme in lysine biosynthesis” (Bioscience Reports, 2025)
